Key:
[1] = biological target: T1, Flag-TMIGD1/WT (human TMIGD1, AA 30-262) stably expressed in MDCKII-TetOFF cells (human) (UniProt Q6UXZ0)
T1 sequence: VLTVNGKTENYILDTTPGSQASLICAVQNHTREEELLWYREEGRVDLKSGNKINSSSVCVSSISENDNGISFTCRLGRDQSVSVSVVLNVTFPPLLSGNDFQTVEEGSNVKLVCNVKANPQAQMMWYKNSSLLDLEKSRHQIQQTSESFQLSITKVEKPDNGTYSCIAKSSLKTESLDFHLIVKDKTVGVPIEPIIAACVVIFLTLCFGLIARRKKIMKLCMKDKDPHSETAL

[2] = biological target: T2, Flag-ΔD1-TMIGD1 (human TMIGD1 lacking the membrane-distal Ig-like domain, AA 115-262) (human) (UniProt Q6UXZ0)
T2 sequence: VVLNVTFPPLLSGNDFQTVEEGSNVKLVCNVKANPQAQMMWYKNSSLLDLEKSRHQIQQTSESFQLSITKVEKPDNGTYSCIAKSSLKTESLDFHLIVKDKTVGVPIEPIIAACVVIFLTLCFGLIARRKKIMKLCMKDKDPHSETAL

recruitment of TMIGD1/WT from cytoplasmic compartments to mitochondria in Myc-SYNJ2BP-expressing MDCKII-TetOFF cells (immunofluorescence microscopy, fraction of cells) [1]: 75%
recruitment of ΔD1-TMIGD1 from cell-cell contacts to mitochondria in Myc-SYNJ2BP-expressing MDCKII-TetOFF cells (immunofluorescence microscopy, fraction of cells) [2]: > 90%
B1: Myc-hSYNJ2BP (human SYNJ2BP full length, AA 2-145) (natural protein)
chain: NGRVDYLVTEEEINLTRGPSGLGFNIVGGTDQQYVSNDSGIYVSRIKENGAAALDGRLQEGDKILSVNGQDLKNLLHQDAVDLFRNAGYAVSLRVQHRLQVQNGPIGHRGEGDPSGIPIFMVLVPVFALTMVAAWAFMRYRQQL

From PMC7164261
